From KR20200098338A (dated 2020) come the findings set out here.

Where a chain is given by its changes, count along the chain named.

The target in experiment [1] is T1, 인간 BAG2 단백질 (human BAG2 protein) (human, UniProt O95816 2-211).
T1 construct: also called BAG2 폴리펩티드
Nature of the experiment: immunoblot selection of hybridoma clones.

Experiment [2] addresses T2, GST-Bag Full (GST-융합 전장 BAG2 폴리펩티드) (human, UniProt O95816 1-211).
T2 construct: Expressed in HEK293T cells, detected at about 50 kDa in lysate by immunoblot; also called GST-Bag Full 벡터 발현 산물; not shown: GST tag, about 26 kDa, from pcDNA3.1+/GST vector (NovoPro Bioscience)
Nature of the experiment: immunoblot of lysate of HEK293T cells transfected with GST-Bag Full vector, signal at about 50 kDa.

Experiment [3] addresses T1, 인간 BAG2 단백질 (human BAG2 protein). Nature of the experiment: immunoblot of MDA-MB-231 cell lysate, antibody from hybridoma culture at 1/2000.

T1 sequence (O95816 2-211 limits assumed): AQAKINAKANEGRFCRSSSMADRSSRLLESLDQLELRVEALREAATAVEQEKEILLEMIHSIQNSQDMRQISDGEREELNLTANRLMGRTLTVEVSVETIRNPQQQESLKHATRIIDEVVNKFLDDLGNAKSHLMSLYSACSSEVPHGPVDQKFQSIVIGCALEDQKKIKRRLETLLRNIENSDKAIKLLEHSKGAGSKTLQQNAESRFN
T2 sequence (O95816 whole entry): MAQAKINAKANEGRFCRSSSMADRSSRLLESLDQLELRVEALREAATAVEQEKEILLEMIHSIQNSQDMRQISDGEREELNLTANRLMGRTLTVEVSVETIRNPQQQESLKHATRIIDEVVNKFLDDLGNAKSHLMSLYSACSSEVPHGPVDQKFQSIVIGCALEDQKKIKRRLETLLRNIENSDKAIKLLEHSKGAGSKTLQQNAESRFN

B1: 3F12 항체 (항-BAG2 단일클론성 항체) (antibody, V domains shown)
VH: QVQLQESGPDLVKPSQSLSLTCTVTGYSITSGYSWHWIRQFPGNKLEWMGYIYYRGSTNYNPSLKSRISITRDTSKNQFFLLLKSVTTEDTATYYCAREAYWGQGTLVTVSA
VL: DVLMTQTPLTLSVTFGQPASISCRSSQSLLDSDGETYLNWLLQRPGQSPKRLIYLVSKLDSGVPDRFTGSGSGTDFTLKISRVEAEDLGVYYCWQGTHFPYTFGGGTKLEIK
notes: Mouse hybridoma monoclonal antibody
Consider B1, for which the binding result in experiment [1] and in experiment [2] was “binds” each time.

B2: 2A11 항체 (항-BAG2 단일클론성 항체) (antibody, V domains shown)
VH: QVQLQQPGAELVRPGASVTLSCKASGYTFTDYEMHWVKQTPVHGLEWIGIIDPETGGTAYNQKFKGKATLTADKSSSTAYMELRSLTSEDSAVYYCTRGKFYYSGRDYAMDYWGQGTSVTVSS
VL: DVLMTQTPLSLPVSLGDQASISCRSSQSIVHSNGNTYLEWYLQKPGQSPKLLIYKVSNRFSGVPDRFSGSGSGTDFTLKISRVEAEDLGVYFCFQGSQVPPTFGGGTKLEIK
notes: as for B1
As to B2, the binding result in experiment [1] and in experiment [2] was “binds” each time.

B3: 4C2 항체 (항-BAG2 단일클론성 항체) (antibody, V domains shown)
VH: B2 VH with G57A
VL: B2 VL with I53F
notes: as for B1
As to B3, the binding result in experiment [2] and in experiment [3] was “binds” each time.

B4: 8C4 항체 (항-BAG2 단일클론성 항체) (antibody, V domains shown)
VH: B2 VH with G56A
VL: B2 VL with I53F
notes: as for B1
On to B4, for which the binding result in experiment [2] and in experiment [3] was “binds” throughout.

B5: 3G8 항체 (항-BAG2 단일클론성 항체) (antibody, V domains shown)
VH: QIQLVQSGPELKKPGETVKISCKASGYSFTKYGMNWVKQAPGKDIKWMGWINTNTGEATYGEEVKGRFAFSLETSASTAYLQINNLKNEDTATYFCARLGLRYLDYWGQGTTLTVSS
VL: DIVMTQSPASLVVSLGQRATISCRASKSVSTSDYSYMHWYQQKPGQPPKVLIYLASNLESGVPARFSGSGSGTDFTLNIHPVEEEDAATYYCQHNRELPPTFGAGTKLELK
notes: as for B1
With B5, the binding result in experiment [2] and in experiment [3] was “binds” in each case.
